Among the data in paper PMC4943715, “Expression of Biphenyl Synthase Genes and Formation of Phytoalexin Compounds in Three Fire Blight-Infected Pyrus communis Cultivars” (PLoS ONE, 2016) are Km, kcat and kcat/Km values, retold here.

Holding throughout (test): product formation, HPLC-DAD of ethyl acetate extract; Hanes plot
Holding throughout (type): biochemical, Pyrus communis

Substrate in data set [1]: CC(C)(COP(=O)(O)OP(=O)(O)OC[C@H]1O[C@@H](n2cnc3c(N)ncnc32)[C@H](O)[C@@H]1OP(=O)(O)O)[C@@H](O)C(=O)NCCC(=O)NCCSC(=O)CC(=O)O
To be noted: benzoyl-CoA as starter at saturation, 0.1 M potassium phosphate pH 7.0, 35°C, 5 min. The source says:
(§1) product formation, HPLC-DAD of ethyl acetate extract; Hanes plot on PcBIS1

Substrate in data set [2]: CC(C)(COP(=O)(O)OP(=O)(O)OC[C@H]1O[C@@H](n2cnc3c(N)ncnc32)[C@H](O)[C@@H]1OP(=O)(O)O)[C@@H](O)C(=O)NCCC(=O)NCCSC(=O)c1ccccc1
To be noted: malonyl-CoA at saturation, 0.1 M potassium phosphate pH 7.0, 35°C, 5 min.
Source text: as §1

Substrate in data set [3]: CC(C)(COP(=O)(O)OP(=O)(O)OC[C@H]1O[C@@H](n2cnc3c(N)ncnc32)[C@H](O)[C@@H]1OP(=O)(O)O)[C@@H](O)C(=O)NCCC(=O)NCCSC(=O)c1ccccc1O
The conditions noted are these: malonyl-CoA at saturation, 0.1 M potassium phosphate pH 7.0, 35°C, 5 min.
Source text: as §1

Substrate in data set [4]: CC(C)(COP(=O)(O)OP(=O)(O)OC[C@H]1O[C@@H](n2cnc3c(N)ncnc32)[C@H](O)[C@@H]1OP(=O)(O)O)[C@@H](O)C(=O)NCCC(=O)NCCSC(=O)CC(=O)O
The conditions noted are these: benzoyl-CoA as starter at saturation, 0.1 M potassium phosphate pH 7.0, 35°C, 5 min. The source says: (§2) product formation, HPLC-DAD of ethyl acetate extract; Hanes plot on PcBIS2
This is another data set of the same source.

Substrate in data set [5]: CC(C)(COP(=O)(O)OP(=O)(O)OC[C@H]1O[C@@H](n2cnc3c(N)ncnc32)[C@H](O)[C@@H]1OP(=O)(O)O)[C@@H](O)C(=O)NCCC(=O)NCCSC(=O)c1ccccc1
The conditions noted are these: malonyl-CoA at saturation, 0.1 M potassium phosphate pH 7.0, 35°C, 5 min.
Source text: as §2
This is another data set of the same source.

Substrate in data set [6]: CC(C)(COP(=O)(O)OP(=O)(O)OC[C@H]1O[C@@H](n2cnc3c(N)ncnc32)[C@H](O)[C@@H]1OP(=O)(O)O)[C@@H](O)C(=O)NCCC(=O)NCCSC(=O)c1ccccc1O
To be noted: malonyl-CoA at saturation, 0.1 M potassium phosphate pH 7.0, 35°C, 5 min.
Source text: as §2
This is another data set of the same source.

The term Km denotes the concentration of substrate that gives half-maximal velocity. The kcat is the number of substrate molecules converted per active site and unit of time at saturation. One may read the kcat/Km as the turnover number divided by the Michaelis constant.

B1: PcBIS1 (Pyrus communis) (protein)
chain: MAPLVKNHVEPPHAKILAIGTANPPNVYYQKDYPDFLFRVTKNEHRTDLREKFDRICEKSRTRKRYLYLTEEILNANPSIYTYGAPSLDVRQDMLNPEVPKLGQQAALKAIKEWGQPISKITHLIFCTASCVDMPGADFQLVKLLGLNPSVTRTMIYEAGCYAGATVLRLAKDFAENNEDARVLVVCAEITTVFFHGLTDTHLDILVGQALFADGASAVIVGANPEPEIERPLFEIVACRQTIIPNSEHGVVANIREMGFNYYLSGDVPKFVGGSVVDFLTKTFEKVDGKNKDWNSLFLSVHPGGPAIVDQVEEQLGLKEGKLRATRHVLSEYGNMGAPSVHFILDEMRNKSIGEGKATTGEGLEWGVVIGIGPGLTVETAVLRSESIPC
Regarding B1, the Km in data set [1] was 13.7 ± 2.9 µM. For the same protein, in data set [2], the Km worked out at 1.1 ± 0.2 µM, the catalytic constant (kcat) amounted to 0.055 ± 0.005 s⁻¹ and the kcat/Km is 50000 M⁻¹ s⁻¹. In data set [3], the Km amounted to 78.4 ± 4.8 µM, the kcat came out at 0.77 ± 0.075 s⁻¹ and the kcat/Km was 9820 M⁻¹ s⁻¹.

B2: PcBIS2 (Pyrus communis) (protein)
chain: MAPLVKNHVEPPHAKILAIGTANPPNVYYQKDYPDFLFRVTKNEHRTDLREKFDRICEKSRTRKRYLYLTEEILNANPSIYTYGAPSLDVRQDMLNPEVPKLGQQAALKAIKEWGQPISKITHLIFCTASCVDMPGADFQLVKLLGLNPSVTRTMIYEAGCYAGATVLRLAKDFAENNEDARVLVVCAEITTVFFHGLTDTHLDILVGQALFADGASAVIVGANPEPEIESPLFEIVACRQTIIPNSEHGVVANIREMGFNYYLSGEVPKFVGGNVVDFLTKTFEKVDGKNKDWNSLFFSVHPGGPAIVDQVEEQLGLKEGKLRATRHVLSEYGNMGAPSVHFILDEMRKKSIEEGKATTGEGLEWGVVIGIGPGLTVETAVLRSESIPC
For the protein B2, the Km in data set [4] is 11.6 ± 2.2 µM. Further, in data set [5], the Michaelis constant (Km) came to 0.9 ± 0.1 µM, the kcat came out at 0.035 ± 0.00167 s⁻¹ and the kcat/Km is 38900 M⁻¹ s⁻¹. Besides, in data set [6], the Km turned out to be 95.2 ± 5.4 µM, the kcat was 0.89 ± 0.09 s⁻¹ and the kcat/Km stood at 9350 M⁻¹ s⁻¹.
